Data: doi:10.1101/2023.01.09.523258 (bioRxiv, 2023)

Molecular target: the molecule itself
Assay: native MS

B1: Conalbumin (Ovotransferrin/OVT) from chicken egg white (natural protein, UniProt P02789 20-705, looked up)
chain: APPKSVIRWCTISSPEEKKCNNLRDLTQQERISLTCVQKATYLDCIKAIANNEADAISLDGGQAFEAGLAPYKLKPIAAEVYEHTEGSTTSYYAVAVVKKGTEFTVNDLQGKTSCHTGLGRSAGWNIPIGTLLHRGAIEWEGIESGSVEQAVAKFFSASCVPGATIEQKLCRQCKGDPKTKCARNAPYSGYSGAFHCLKDGKGDVAFVKHTTVNENAPDQKDEYELLCLDGSRQPVDNYKTCNWARVAAHAVVARDDNKVEDIWSFLSKAQSDFGVDTKSDFHLFGPPGKKDPVLKDLLFKDSAIMLKRVPSLMDSQLYLGFEYYSAIQSMRKDQLTPSPRENRIQWCAVGKDEKSKCDRWSVVSNGDVECTVVDETKDCIIKIMKGEADAVALDGGLVYTAGVCGLVPVMAERYDDESQCSKTDERPASYFAVAVARKDSNVNWNNLKGKKSCHTAVGRTAGWVIPMGLIHNRTGTCNFDEYFSEGCAPGSPPNSRLCQLCQGSGGIPPEKCVASSHEKYFGYTGALRCLVEKGDVAFIQHSTVEENTGGKNKADWAKNLQMDDFELLCTDGRRANVMDYRECNLAEVPTHAVVVRPEKANKIRDLLERQEKRFGVNGSEKSKFMMFESQNKDLLFKDLTKCLFKVREGTTYKEFLGDKFYTVISSLKTCNPSDILQMCSFLEGK
Q: B1 was tested. Which “stoichiometry N” value did it give?
A: Its value is 2.
